Measurements: publication doi:10.1101/2022.08.10.503460

How the values were obtained:
Cdh23 EC1-5 = experiment: AFM force-clamp spectroscopy
full-length Cdh23 EC1-27 = experiment: AFM force-clamp spectroscopy
Pcdh15 EC1-11 PICA [1] = molecular target: Pcdh15 EC1-11 PICA
Pcdh15 EC1-11 PICA [2] = experiment: AFM force-clamp spectroscopy
[3] = molecular target: Mouse Cdh23 EC1-2 (mouse) (UniProt Q99PF4); experiment: AFM force-clamp spectroscopy
Sequence of Mouse Cdh23 EC1-2 (mouse) (Q99PF4 24-228): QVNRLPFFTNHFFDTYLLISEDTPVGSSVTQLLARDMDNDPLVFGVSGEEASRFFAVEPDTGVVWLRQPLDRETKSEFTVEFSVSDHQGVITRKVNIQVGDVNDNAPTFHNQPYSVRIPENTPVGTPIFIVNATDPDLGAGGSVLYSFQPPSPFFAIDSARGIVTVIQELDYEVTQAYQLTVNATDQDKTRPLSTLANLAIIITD

In the case of “Mouse Pcdh15 EC1-2 (from UniProt Q99PJ1 27-259) (domain or fragment)”, the zero-force lifetime (Cdh23 EC1-5) is reported as 1.5 s and the zero-force lifetime (full-length Cdh23 EC1-27) is reported as 10 s.
Substance Pcdh15 EC1-11 PICA (domain or fragment) has a stoichiometry N (Pcdh15 EC1-11 PICA [1]) of 2.
Cdh23 EC1-27 Fc dimer (Fc fusion) showed an intrinsic lifetime at no force (τ0) (Pcdh15 EC1-11 PICA [2]) of 30 s.
“Pcdh15 EC1-2 (R113G), Q99PJ1 27-259 (domain or fragment; other documents disagree on this pair)” showed a koff [3] of 0.3 s⁻¹.
